Laboratory results as given in the RNAGym collection of RNA variant scans (doi:10.1093/molbev/msab373).

B1: Azoarcus group I ribozyme (parent)
chain: GUGCCUUGCGCCGGGAAACCACGCAAGGGAUGGUGUCAAAUUCGGCGAAACCUAAGCGCCCGCCCGGGCGUAUGGCAACGCCGAGCCAAGCUUCGGCGCCUGCGCCGAUGAAGGUGUAGAGACUAGACGGCACCCACCUAAGGCAAACGCUAUGGUGAAGGCAUAGUCCAGGGAGUGGCGAAAGUCACACAAACCGG

Variants of: B1
Assay: reverse-splicing fitness (ratio to wild type); higher = more active; in vitro selection; Mg2+ level not given
Outline: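 An in vitro group I ribozyme library with randomized positions was T7-transcribed and gel-purified. In triplicate, 10 pmol RNA in EPPS pH 7.5 was reacted with 50 pmoles of a 30-nt RNA substrate for 1 h at 37 °C across several added MgCl2 levels (1–48 mM), then stopped with EDTA. Products were reverse transcribed from a substrate-complementary primer, PCR-amplified and sequenced (HiSeq 4000). Fitness is a variant's read proportion after selection over that before, normalised to wild type.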

First: C82U A111U A120U A145U C150G C169G U176C
Second: C82U A111U A120U A145U C150G C169G U176G
The reverse-splicing fitness of the first is higher: 0.00288 for the first, 0.00209 for the second.

Compared with C82U A111U A120U A145U C150G C169U, C82U A111U A120U A145U C150G C169U U176A is lower in reverse-splicing fitness: 0.00272 for the first, 0.00242 for the second.

Compared with C82U A111U A120U A145U C150G C169U U176C, C82U A111U A120U A145U C150G C169U U176G is lower in reverse-splicing fitness: 0.00272 for the first, 0.0024 for the second.

First: C82U A111U A120U A145U C150G U176A
Second: C82U A111U A120U A145U C150G U176C
The reverse-splicing fitness of the first is lower: 0.00312 for the first, 0.0047 for the second.

Going from C82U A111U A120U A145U C150G U176G to C82U A111U A120U A145U C150U, the reverse-splicing fitness rises from 0.00226 to 0.0175.

First: C82U A111U A120U A145U C150U C169A
Second: C82U A111U A120U A145U C150U C169A U176A
The reverse-splicing fitness of the first is lower: 0.00254 for the first, 0.00292 for the second.

Going from C82U A111U A120U A145U C150U C169A U176C to C82U A111U A120U A145U C150U C169A U176G, the reverse-splicing fitness falls from 0.00275 to 0.00202.

Going from C82U A111U A120U A145U C150U C169G to C82U A111U A120U A145U C150U C169G U176A, the reverse-splicing fitness falls from 0.00343 to 0.00276.

Going from C82U A111U A120U A145U C150U C169G U176C to C82U A111U A120U A145U C150U C169G U176G, the reverse-splicing fitness falls from 0.00317 to 0.00202.

Compared with C82U A111U A120U A145U C150U C169U, C82U A111U A120U A145U C150U C169U U176A is lower in reverse-splicing fitness: 0.00365 for the first, 0.00293 for the second.

First: C82U A111U A120U A145U C150U C169U U176C
Second: C82U A111U A120U A145U C150U C169U U176G
The reverse-splicing fitness of the first is higher: 0.00392 for the first, 0.00227 for the second.

Going from C82U A111U A120U A145U C150U U176A to C82U A111U A120U A145U C150U U176C, the reverse-splicing fitness rises from 0.00665 to 0.00855.

First: C82U A111U A120U A145U C150U U176G
Second: C82U A111U A120U A145U C169A
The reverse-splicing fitness of the first is higher: 0.00324 for the first, 0.00251 for the second.

Compared with C82U A111U A120U A145U C169A U176A, C82U A111U A120U A145U C169A U176C is higher in reverse-splicing fitness: 0.00233 for the first, 0.00301 for the second.

Going from C82U A111U A120U A145U C169A U176G to C82U A111U A120U A145U C169G, the reverse-splicing fitness rises from 0.0017 to 0.00303.

Compared with C82U A111U A120U A145U C169G U176A, C82U A111U A120U A145U C169G U176C is higher in reverse-splicing fitness: 0.00244 for the first, 0.00286 for the second.

First: C82U A111U A120U A145U C169G U176G
Second: C82U A111U A120U A145U C169U
The reverse-splicing fitness of the first is lower: 0.00176 for the first, 0.0039 for the second.

Going from C82U A111U A120U A145U C169U U176A to C82U A111U A120U A145U C169U U176C, the reverse-splicing fitness falls from 0.00286 to 0.00278.

First: C82U A111U A120U A145U C169U U176G
Second: C82U A111U A120U A145U U176A
The reverse-splicing fitness of the first is lower: 0.00177 for the first, 0.00758 for the second.

First: C82U A111U A120U A145U U176C
Second: C82U A111U A120U A145U U176G
The reverse-splicing fitness of the first is higher: 0.0111 for the first, 0.00339 for the second.

First: C82U A111U A120U C150A
Second: C82U A111U A120U C150A C169A
The reverse-splicing fitness of the first is higher: 0.00701 for the first, 0.00469 for the second.

First: C82U A111U A120U C150A C169A U176A
Second: C82U A111U A120U C150A C169A U176C
The reverse-splicing fitness of the first is higher: 0.00372 for the first, 0.00306 for the second.

Going from C82U A111U A120U C150A C169A U176G to C82U A111U A120U C150A C169G, the reverse-splicing fitness rises from 0.00224 to 0.0044.

Compared with C82U A111U A120U C150A C169G U176A, C82U A111U A120U C150A C169G U176C is lower in reverse-splicing fitness: 0.00758 for the first, 0.00448 for the second.

Going from C82U A111U A120U C150A C169G U176G to C82U A111U A120U C150A C169U, the reverse-splicing fitness rises from 0.0026 to 0.00428.

First: C82U A111U A120U C150A C169U U176A
Second: C82U A111U A120U C150A C169U U176C
The reverse-splicing fitness of the first is higher: 0.0059 for the first, 0.00379 for the second.

Compared with C82U A111U A120U C150A C169U U176G, C82U A111U A120U C150A U176A is higher in reverse-splicing fitness: 0.00301 for the first, 0.00551 for the second.

Compared with C82U A111U A120U C150A U176C, C82U A111U A120U C150A U176G is lower in reverse-splicing fitness: 0.00596 for the first, 0.00299 for the second.

Compared with C82U A111U A120U C150G, C82U A111U A120U C150G C169A is higher in reverse-splicing fitness: 0.00645 for the first, 0.00657 for the second.

Compared with C82U A111U A120U C150G C169A U176A, C82U A111U A120U C150G C169A U176C is higher in reverse-splicing fitness: 0.004 for the first, 0.00404 for the second.

First: C82U A111U A120U C150G C169A U176G
Second: C82U A111U A120U C150G C169G
The reverse-splicing fitness of the first is lower: 0.00272 for the first, 0.00584 for the second.

Going from C82U A111U A120U C150G C169G U176A to C82U A111U A120U C150G C169G U176C, the reverse-splicing fitness falls from 0.00411 to 0.00263.

First: C82U A111U A120U C150G C169G U176G
Second: C82U A111U A120U C150G C169U
The reverse-splicing fitness of the first is lower: 0.00254 for the first, 0.00478 for the second.

Going from C82U A111U A120U C150G C169U U176A to C82U A111U A120U C150G C169U U176C, the reverse-splicing fitness rises from 0.00294 to 0.00377.

Going from C82U A111U A120U C150G C169U U176G to C82U A111U A120U C150G U176A, the reverse-splicing fitness rises from 0.00264 to 0.00352.

First: C82U A111U A120U C150G U176C
Second: C82U A111U A120U C150G U176G
The reverse-splicing fitness of the first is higher: 0.005 for the first, 0.00237 for the second.

First: C82U A111U A120U C150U
Second: C82U A111U A120U C150U C169A
The reverse-splicing fitness of the first is higher: 0.0175 for the first, 0.00397 for the second.

First: C82U A111U A120U C150U C169A U176A
Second: C82U A111U A120U C150U C169A U176C
The reverse-splicing fitness of the first is higher: 0.0038 for the first, 0.00314 for the second.

Compared with C82U A111U A120U C150U C169A U176G, C82U A111U A120U C150U C169G is higher in reverse-splicing fitness: 0.00205 for the first, 0.00465 for the second.

First: C82U A111U A120U C150U C169G U176A
Second: C82U A111U A120U C150U C169G U176C
The reverse-splicing fitness of the first is higher: 0.00732 for the first, 0.00317 for the second.

First: C82U A111U A120U C150U C169G U176G
Second: C82U A111U A120U C150U C169U
The reverse-splicing fitness of the first is lower: 0.00205 for the first, 0.00426 for the second.

C82U A111U A120U C150U C169U U176A gave a reverse-splicing fitness of 0.00527.
